Source: US20190359687A1 (Bayer, published 2019)
Values belong to the binder of their own block, whether it stands above or below them.

How the values were obtained:
[1] = molecular target: T1, human glycophorin A on human red blood cells (human, UniProt P02724 20-150); experiment: partition to human RBC, human HemA plasma, 15 min
T1 construct: whole, on cells; also called human GPA; huGPA
T1 sequence (looked up): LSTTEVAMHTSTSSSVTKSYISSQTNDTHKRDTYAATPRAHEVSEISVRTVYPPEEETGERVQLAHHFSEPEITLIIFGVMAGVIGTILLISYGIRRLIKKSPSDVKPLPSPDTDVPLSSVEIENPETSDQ
Procedure: (§1) The supernatant containing plasma, platelets and white blood cells was discarded and the red blood cell pellet was resuspended in 10 pellet volumes of PBS (50 mM Phosphate buffer, pH7.4, 150 mM NaCl). The red blood cells were then pelleted by slow speed centrifugation and the red blood cells re-suspended in 10 volumes of PBS. This washing step was repeated 4 more times and the red blood cells finally resuspended in a volume of plasma from Hemophilia patients with less than 1% of normal levels of FVIII (GeorgeKing Bio-Medical, Overland Park, Kans.) to generate a total volume equal to the initial blood volume such that the RBC density was equal to that of normal whole blood. BDD and RBC targeted FVIII molecules were then spiked into RBC suspension in HemA plasma at 1 IU/mL, and incubated at room temperature for 2-3 hours with gentle rotation. […] An additional control was performed in which BDD or RBC targeted FVIII molecules were added at 11U/ml into the same human hemophilia A plasma and incubated for 5 minutes and 180 mins. These samples were used to determine the input FVIII activity in the presence of plasma which was used to calculate the percentage of the molecule that was bound to RBC. All plasma samples were then assayed together for FVIII activity using the Coatest SP assay (DiaPharma, Columbus, Ohio). The assay was performed following the manufacturer's instructions in a 96-well plate format. […] The plate was incubated at 37° C. for 10 minutes with shaking between each reagent addition. […] The amount of FVIII activity in the plasma reflects the amount of unbound FVIII. The FVIII activity of the same molecule spiked in to Hemophilia A plasma alone (no RBC) and incubated for 5 minutes was normalized to 100%.

[2] = molecular target: T1, human glycophorin A on human red blood …; experiment: partition to human RBC, vWF deficient plasma, 60 min
[3] = molecular target: T1, human glycophorin A on human red blood …; experiment: partition to human RBC, human HemA plasma, 30 min
Procedure: as §1

[4] = molecular target: T2, Cynomolgus monkey glycophorin A on Cynomolgus monkey red blood cells (Cynomolgus monkey); experiment: partition to Cyno RBC, human HemA plasma, 60 min;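 note: FVIII fusion spiked at 1 IU/mL into RBC suspension at whole-blood density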
T2 construct: whole, on cells; also called Cyno GPA; Cyno RBC

[5] = molecular target: T1, human glycophorin A on human red blood …; experiment: partition to human RBC, human HemA plasma, 1 min
[6] = molecular target: T1, human glycophorin A on human red blood …; experiment: partition to human RBC, human HemA plasma, 120 min
Procedure: as §1

[7] = molecular target: T1, human glycophorin A on human red blood …; experiment: partition to human RBC, vWF deficient plasma, 5 min
[8] = molecular target: T1, human glycophorin A on human red blood …; experiment: partition to human RBC, vWF deficient plasma, 15 min
[9] = molecular target: T1, human glycophorin A on human red blood …; experiment: partition to human RBC, human HemA plasma, 5 min
Procedure: as §1

[10] = molecular target: T2, Cynomolgus monkey glycophorin A on …; experiment: partition to Cyno RBC, human HemA plasma, 15 min;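 note: FVIII fusion spiked at 1 IU/mL into RBC suspension at whole-blood density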
[11] = molecular target: T1, human glycophorin A on human red blood …; experiment: partition to human RBC, human HemA plasma, 120 min; remark: listed apart in the source
[12] = molecular target: T2, Cynomolgus monkey glycophorin A on …; experiment: partition to Cyno RBC, human HemA plasma, 1 min;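 note: FVIII fusion spiked at 1 IU/mL into RBC suspension at whole-blood density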
[13] = molecular target: T3, glycophorin A peptide GP5 (human, biotin at the N-terminus); experiment: Octet, GP5 peptide on the probe, fusion protein in solution, 1:1 fit
T3 construct: Residues 42 to 61 of the human glycophorin A extracellular domain
T3 peptide: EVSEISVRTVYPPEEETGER

[14] = molecular target: T2, Cynomolgus monkey glycophorin A on …; experiment: partition to Cyno RBC, human HemA plasma, 5 min;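 note: FVIII fusion spiked at 1 IU/mL into RBC suspension at whole-blood density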
Procedure: To evaluate partition to cynomolgus monkey or human red blood cells, whole blood was draw from Cynomolgus monkey or normal human volunteers in to anticoagulant with 4% sodium citrate (Sigma, St Louis, Mo.). The red blood cells were purified by layering the whole blood on to ficoll followed by low speed centrifugation. The supernatant containing plasma, platelets and white blood cells was discarded and the red blood cell pellet was resuspended in 10 pellet volumes of PBS (50 mM Phosphate buffer, pH7.4, 150 mM NaCl). The red blood cells were then pelleted by slow speed centrifugation and the red blood cells re-suspended in 10 volumes of PBS. This washing step was repeated 4 more times and the red blood cells finally resuspended in a volume of plasma from Hemophilia patients with less than 1% of normal levels of FVIII (GeorgeKing Bio-Medical, Overland Park, Kans.) to generate a total volume equal to the initial blood volume such that the RBC density was equal to that of normal whole blood. BDD and RBC targeted FVIII molecules were then spiked into RBC suspension in HemA plasma at 1 IU/mL, and incubated at room temperature for 2-3 hours with gentle rotation. […] An additional control was performed in which BDD or RBC targeted FVIII molecules were added at 11U/ml into the same human hemophilia A plasma and incubated for 5 minutes and 180 mins. These samples were used to determine the input FVIII activity in the presence of plasma which was used to calculate the percentage of the molecule that was bound to RBC. All plasma samples were then assayed together for FVIII activity using the Coatest SP assay (DiaPharma, Columbus, Ohio). The assay was performed following the manufacturer's instructions in a 96-well plate format. […] The plate was incubated at 37° C. for 10 minutes with shaking between each reagent addition.

[15] = molecular target: T1, human glycophorin A on human red blood …; experiment: partition to human RBC, vWF deficient plasma, 30 min
[16] = molecular target: T1, human glycophorin A on human red blood …; experiment: partition to human RBC, vWF deficient plasma, 1 min
[17] = molecular target: T1, human glycophorin A on human red blood …; experiment: partition to human RBC, vWF deficient plasma, 120 min
[18] = molecular target: T2, Cynomolgus monkey glycophorin A on …; experiment: partition to Cyno RBC, human HemA plasma, 30 min;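 note: FVIII fusion spiked at 1 IU/mL into RBC suspension at whole-blood density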
[19] = molecular target: T2, Cynomolgus monkey glycophorin A on …; experiment: partition to Cyno RBC, human HemA plasma, 120 min;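 note: FVIII fusion spiked at 1 IU/mL into RBC suspension at whole-blood density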
[20] = molecular target: T1, human glycophorin A on human red blood …; experiment: partition to human RBC, human HemA plasma, 60 min
Procedure: as §1

[21] = molecular target: T4, human glycophorin A on human red blood cells or red blood cell membranes (human, UniProt P02724 20-150); experiment: SPR (Biacore), Fab over human RBC membranes, 1:1 fit;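 note: human RBC membrane preparations captured on an L1 sensor surface, with antibody passed over them as analyte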
T4 construct: whole, on cells; also called hRBC; human RBC membranes
T4 sequence (looked up): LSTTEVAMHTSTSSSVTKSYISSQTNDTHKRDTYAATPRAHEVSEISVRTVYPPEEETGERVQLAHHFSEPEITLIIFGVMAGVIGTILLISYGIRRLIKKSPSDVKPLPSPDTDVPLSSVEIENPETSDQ
Procedure: Kinetic analysis of the antibody binding to human red blood cell membranes was also performed using surface plasmon resonance (SPR) using a Biacore instrument. In this assay membranes prepared from human red blood cells were attached to a L1 sensor matrix and antibodies were flowed over the RBC membranes.

[22] = molecular target: T5, Cynomolgus monkey recombinant glycophorin A ectodomain (Cynomolgus monkey); experiment: ELISA, Fab on coated recombinant cyno GPA ectodomain
T5 construct: extracellular domain

[23] = molecular target: T6, native human glycophorin A protein (human, UniProt P02724 20-150); experiment: ELISA, Fab on coated native human GPA
T6 construct: mature; also called Hu-nat GPA
T6 sequence (looked up): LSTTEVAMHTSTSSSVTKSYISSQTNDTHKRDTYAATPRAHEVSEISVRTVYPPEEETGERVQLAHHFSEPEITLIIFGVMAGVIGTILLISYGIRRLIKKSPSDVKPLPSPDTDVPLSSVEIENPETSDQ

[24] = molecular target: T7, Cynomolgus monkey glycophorin A on Cynomolgus monkey red blood cells or red blood cell membranes (Cynomolgus monkey); experiment: ELISA, Fab on coated cyno RBC membranes
T7 construct: whole, on cells; also called Cyno RBC; Cynomolgus monkey RBC membranes

[25] = molecular target: T8, recombinant human glycophorin A ectodomain protein (human, UniProt P02724 20-91); experiment: ELISA, Fab on coated recombinant human GPA ectodomain
T8 construct: 72 amino acids of the extracellular region; also called Hu-rec GPA
T8 sequence: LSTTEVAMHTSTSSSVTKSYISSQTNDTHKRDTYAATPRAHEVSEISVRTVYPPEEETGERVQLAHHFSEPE

[26] = molecular target: T4, human glycophorin A on human red blood …; experiment: ELISA, Fab on coated human RBC membranes
Procedure: These membranes are prepared by first isolating red blood cells from citrated whole blood. Citrated whole blood is layered on to Ficol and centrifuged at low speed for 20 minutes to pellet the red blood cells. The supernatant containing plasma and other blood cells is discarded and the red blood cell pellet is subsequently washed 3 times in 10 cell volumes of phosphate buffered saline (PBS). A 10 ml pellet of purified red blood cells is resuspended in 30 ml of cold low osmorality 20 mM phosphate buffer (pH7.4) and incubated for 30 mins to break open the RBC. After Centrifugation at 10,000 rpm for 30 min at 5° C. the hemoglobin containing supernatant is discarded. To the membrane pellet another 30 ml of 20 mM phosphate buffer is added and the sample centrifuged again at 10,000 rpm for 30 min at 5° C. to pellet the membrane fraction. This wash and centrifugation step is repeated another 4 times. The red blood cell membranes are then resuspended in 20 mL of PBS to achieve an equivalent of approximately 2.5E9 cells/mL and stored frozen at −20° C. Binding of antibodies to RBC ghost can be measured by ELISA in which the RBC ghost suspension (5×10⁶ in 100 ul PBS) was added to each well of flat bottom 96-well ELISA microtiter plates (2HB, Immunolon) and the plates incubated overnight at 4° C. The plates were blocked with Starting blocking buffer (Thermo Fisher) for 2 hours at room temperature (RT). Antibodies or other test molecules were added to each well and incubated for 1.5 hours at RT. After 4 washes 100 ul of an appropriate detection antibody was added to each well and incubated for 1 hour at RT. After 4 washes the detection antibody was measured using appropriate detection reagents.

B2: TPP-5702, Hu6C12-24 Fab variant VL: (S24R, A26S, S49A, P54Q, F95Y) (Fab, V domains shown)
VH: EVQLVQSGAEVKKPGASVKVSCKASGYTFTTYTIHWVRQAPGQGLEWIGYINPSSDYTRYNPKFKDRVTLTTDKSTSTAYMELRSLRSDDTAVYYCQTGTRDYWGQGTTVTVSS
VL: DIQLTQSPSFLSASVGDRVTITCRASSSVSYIYWFQQKPGKAPKLLIYATSTLQSGVPSRFSGSGSGTEYTLTISSLQPEDFATYYCHQRNSFPYTFGQGTKLEIKR
notes: Built on the parental Fab TPP-4935
Kd [21]: 170 nM
koff [21]: 0.11 s⁻¹
kon [21]: 650000 M⁻¹ s⁻¹
binding in ELISA relative to parental Fab [22]: 1.1 relative to parental Fab
binding in ELISA relative to parental Fab [23]: 5.2 relative to parental Fab
binding in ELISA relative to parental Fab [24]: 1.1 relative to parental Fab
binding in ELISA relative to parental Fab [25]: 4.3 relative to parental Fab
binding in ELISA relative to parental Fab [26]: 10.2 relative to parental Fab

B4: TPP-5835, Hu6C12-24 Fab variant VL: (S24R, A26S, S49A, P54Q, F95Y); VH: (I48M, L70M) (Fab, V domains shown)
VH: EVQLVQSGAEVKKPGASVKVSCKASGYTFTTYTIHWVRQAPGQGLEWMGYINPSSDYTRYNPKFKDRVTMTTDKSTSTAYMELRSLRSDDTAVYYCQTGTRDYWGQGTTVTVSS
VL: DIQLTQSPSFLSASVGDRVTITCRASSSVSYIYWFQQKPGKAPKLLIYATSTLQSGVPSRFSGSGSGTEYTLTISSLQPEDFATYYCHQRNSFPYTFGQGTKLEIKR
notes: as for B2
binding in ELISA relative to parental Fab [22]: 1.1 relative to parental Fab
binding in ELISA relative to parental Fab [23]: 5.2 relative to parental Fab
binding in ELISA relative to parental Fab [24]: 1.4 relative to parental Fab
binding in ELISA relative to parental Fab [25]: 4.3 relative to parental Fab
binding in ELISA relative to parental Fab [26]: 10.3 relative to parental Fab

Results, then the binder that gave them:

percentage bound to human RBC [1]: 16.3%
percentage bound to human RBC [2]: 93.3%
percentage bound to human RBC [3]: 20.5%
% bound to Cyno RBC [4]: -9.8%
percentage bound to human RBC [5]: 0%
percentage bound to human RBC [6]: 52.8%
percentage bound to human RBC [7]: 67.9%
percentage bound to human RBC [8]: 88.3%
percentage bound to human RBC [9]: 13.8%
% bound to Cyno RBC [10]: -12.5%
percentage bound to human RBC [11]: 52.8%
% bound to Cyno RBC [12]: 0%
Kd [13]: 13.3 nM
koff [13]: 0.00465 s⁻¹
kon [13]: 351000 M⁻¹ s⁻¹
% bound to Cyno RBC [14]: -19.3%
percentage bound to human RBC [15]: 92.4%
percentage bound to human RBC [16]: 35.1%
percentage bound to human RBC [17]: 93%
% bound to Cyno RBC [18]: -1.9%
% bound to Cyno RBC [19]: -1.9%
percentage bound to human RBC [20]: 37.1%
B1: TPP-8741 FVIII-scFv fusion protein (other)
chain: ATRRYYLGAVELSWDYMQSDLGELPVDARFPPRVPKSFPFNTSVVYKKTLFVEFTDHLFNIAKPRPPWMGLLGPTIQAEVYDTVVITLKNMASHPVSLHAVGVSYWKASEGAEYDDQTSQREKEDDKVFPGGSHTYVWQVLKENGPMASDPLCLTYSYLSHVDLVKDLNSGLIGALLVCREGSLAKEKTQTLHKFILLFAVFDEGKSWHSETKNSLMQDRDAASARAWPKMHTVNGYVNRSLPGLIGCHRKSVYWHVIGMGTTPEVHSIFLEGHTFLVRNHRQASLEISPITFLTAQTLLMDLGQFLLFCHISSHQHDGMEAYVKVDSCPEEPQLRMKNNEEAEDYDDDLTDSEMDVVRFDDDNSPSFIQIRSVAKKHPKTWVHYIAAEEEDWDYAPLVLAPDDRSYKSQYLNNGPQRIGRKYKKVRFMAYTDETFKTREAIQHESGILGPLLYGEVGDTLLIIFKNQASRPYNIYPHGITDVRPLYSRRLPKGVKHLKDFPILPGEIFKYKWTVTVEDGPTKSDPRCLTRYYSSFVNMERDLASGLIGPLLICYKESVDQRGNQIMSDKRNVILFSVFDENRSWYLTENIQRFLPNPAGVQLEDPEFQASNIMHSINGYVFDSLQLSVCLHEVAYWYILSIGAQTDFLSVFFSGYTFKHKMVYEDTLTLFPFSGETVFMSMENPGLWILGCHNSDFRNRGMTALLKVSSCDKNTGDYYEDSYEDISAYLLSKNNAIEPRSFSQNGGGGSTGGTGGSSGGGTGSGGGGTGGSGGTDIQLTQSPSFLSASVGDRVTITCRASSSVRYIYWFQQKPGKAPKLLIYATSFRQSGVPSRFSGSGSGTEYTLTISSLQPEDFATYYCHQRNSFPYTFGQGTKLEIKGGGGSGGGGSGGGGSGGGGSEVQLVQSGAEVKKPGASVKVSCKASGYTFTTYAIHWVRQAPGQGLEWMGYINPSSGYTRYNPKFKGRVTMTRDKSTSTAYMELRSLRSDDTAVYYCWTGTRDYWGQGTTVTVSSGGGGSQNPPVLKRHQREITRTTLQSDQEEIDYDDTISVEMKKEDFDIYDEDENQSPRSFQKKTRHYFIAAVERLWDYGMSSSPHVLRNRAQSGSVPQFKKVVFQEFTDGSFTQPLYRGELNEHLGLLGPYIRAEVEDNIMVTFRNQASRPYSFYSSLISYEEDQRQGAEPRKNFVKPNETKTYFWKVQHHMAPTKDEFDCKAWAYFSDVDLEKDVHSGLIGPLLVCHTNTLNPAHGRQVTVQEFALFFTIFDETKSWYFTENMERNCRAPCNIQMEDPTFKENYRFHAINGYIMDTLPGLVMAQDQRIRWYLLSMGSNENIHSIHFSGHVFTVRKKEEYKMALYNLYPGVFETVEMLPSKAGIWRVECLIGEHLHAGMSTLFLVYSNKCQTPLGMASGHIRDFQITASGQYGQWAPKLARLHYSGSINAWSTKEPFSWIKVDLLAPMIIHGIKTQGARQKFSSLYISQFIIMYSLDGKKWQTYRGNSTGTLMVFFGNVDSSGIKHNIFNPPIIARYIRLHPTHYSIRSTLRMELMGCDLNSCSMPLGMESKAISDAQITASSYFTNMFATWSPSKARLHLQGRSNAWRPQVNNPKEWLQVDFQKTMKVTGVTTQGVKSLLTSMYVKEFLISSSQDGHQWTLFFQNGKVKVFQGNQDSFTPVVNSLDPPLLTRYLRIHPQSWVHQIALRMEVLGCEAQDLY
notes: The entry is the mature protein; mostly a 2 chain molecule; also called BDD-Bdom scFv; PPB 6559

Kd [21]: 1.6 nM
koff [21]: 0.0035 s⁻¹
kon [21]: 2.1e+06 M⁻¹ s⁻¹
binding in ELISA relative to parental Fab [22]: 1.2 relative to parental Fab
binding in ELISA relative to parental Fab [23]: 5.8 relative to parental Fab
binding in ELISA relative to parental Fab [24]: 2.3 relative to parental Fab
binding in ELISA relative to parental Fab [25]: 4.7 relative to parental Fab
binding in ELISA relative to parental Fab [26]: 5.8 relative to parental Fab
B3: TPP-5839, Hu6C12-24 Fab variant VL: (S24R, A26S, S49A, P54Q, F95Y); VH: (I48M, D66G, L70M, T72R) (Fab, V domains shown)
VH: EVQLVQSGAEVKKPGASVKVSCKASGYTFTTYTIHWVRQAPGQGLEWMGYINPSSDYTRYNPKFKGRVTMTRDKSTSTAYMELRSLRSDDTAVYYCQTGTRDYWGQGTTVTVSS
VL: DIQLTQSPSFLSASVGDRVTITCRASSSVSYIYWFQQKPGKAPKLLIYATSTLQSGVPSRFSGSGSGTEYTLTISSLQPEDFATYYCHQRNSFPYTFGQGTKLEIKR
notes: as for B2

Kd [21]: 3.3 nM
koff [21]: 0.0043 s⁻¹
kon [21]: 1.3e+06 M⁻¹ s⁻¹
binding in ELISA relative to parental Fab [22]: 1.2 relative to parental Fab
binding in ELISA relative to parental Fab [23]: 5.8 relative to parental Fab
binding in ELISA relative to parental Fab [24]: 2.1 relative to parental Fab
binding in ELISA relative to parental Fab [25]: 4.7 relative to parental Fab
binding in ELISA relative to parental Fab [26]: 11.9 relative to parental Fab
B5: TPP-5841, Hu6C12-24 Fab variant VL: (S24R, A26S, S49A, P54Q, F95Y); VH: (D66G, L70M) (Fab, V domains shown)
VH: EVQLVQSGAEVKKPGASVKVSCKASGYTFTTYTIHWVRQAPGQGLEWIGYINPSSDYTRYNPKFKGRVTMTTDKSTSTAYMELRSLRSDDTAVYYCQTGTRDYWGQGTTVTVSS
VL: DIQLTQSPSFLSASVGDRVTITCRASSSVSYIYWFQQKPGKAPKLLIYATSTLQSGVPSRFSGSGSGTEYTLTISSLQPEDFATYYCHQRNSFPYTFGQGTKLEIKR
notes: as for B2
